Experiments:
[1] = TBA assay, cleavage activity: pH and temperature profiles; format: biochemical
Method: (§1) The cleavage activity was determined by incubating 50 μl of a reaction mixture containing 5 mM Neu5Ac, 124 mM HEPES pH 8.0 and different concentrations of enzyme depending on assay type at selected temperatures for the required amount of time. Termination of the reactions and subsequent steps of the assay are as described above. The decrease in absorbance is correlated to the increase in cleavage activity.
pH profiles were determined by assaying the enzyme in triplicate for both condensation and cleavage directions at pH values ranging from 5.5 to 11.0 with 0.5 pH unit intervals. Sodium phosphate buffer was used from pH 5.5 to 7.5, HEPES buffer from pH 6.5 to 8.0, Tris-HCl buffer from pH 7.5 to 9.0 and Glycine buffer from pH 9.0 to 11.0. The reaction mixture was incubated at room temperature for 1 h before being subjected to the TBA assay. Temperature profiles were determined for both directions by assaying the enzyme in triplicate from 4 to 80° C. in HEPES buffer pH 8.0. The reaction mixture was incubated for 30 min at selected temperatures and the reaction was terminated by adding 2 μl of concentrated H2SO4 and then subjected to the TBA assay.

[2] = Comparative specific activity, cleavage reaction (TBA assay); format: biochemical
Method: as §1
Standard reaction mixtures were incubated at room temperature for 1 h before being subjected to the TBA assay.

[3] = Long term stability at different pH (condensation activity after one month); format: physicochemical
Method: Long term stability of AsNAL at different pH was studied by incubating the enzyme at pH values from 6.0 to 11.0 at room temperature for a month. Buffers used were Sodium phosphate (pH 6.0-7.0), HEPES (pH 7.0-8.0), Tris-HCl (pH 8.0-9.0) and glycine (pH 9.0-11.0). The enzyme activity in the condensation direction was measured using the standard reaction mixture incubated at room temperature for 1 h, with subsequent TBA assay. The stability of AsNAL at different pH was also studied using the thermofluor method described by Ericsson et al. (2006) where increased or decreased stability is related to the increase or decrease in the melting temperature of the protein. For the thermofluor assay, the protein was dialyzed overnight at 4° C. against a buffer containing 10 mM HEPES pH 7.5, 150 mM NaCl and 2 mM β-ME in Pierce Slide-A-Lyzer dialysis cassettes with a 3.5 kDa cutoff. The dialyzed protein was mixed with 2 μl of 300× Sypro® Orange protein gel stain (Sigma) and 100 mM of different buffers ranging from pH 5.0 to pH 9.0. Thermal shifts were screened for by heating in an iCycler iQ Real Time PCR Detection System (Bio-Rad Laboratories) from 1 to 80° C. in increments of 1° C./min. The buffers tested were: Sodium acetate (pH 5.0), Phosphate citrate (pH 5.0-5.5), Sodium citrate (pH 5.5), MES (pH 6.0-6.5), Na-cacodylate (pH 6.0-6.5), Sodium dipotassium phosphate (pH 6.5), BisTris (pH 7.0), HEPES (pH 7.0-8.0), Tris-HCl (pH 7.5-8.5), Imidazole (pH 7.5-8.0), Bicine (pH 8.5) and BisTris propane (pH 8.5-9.0).

[4] = Differential scanning calorimetry (DSC); format: physicochemical; settings: 500 mM NaCl, 50 mM HEPES pH 7.5
Method: The melting temperature of AsNAL was studied by differential scanning calorimetry (DSC). The pure protein was dialyzed overnight at 4° C. against a buffer containing 50 mM HEPES, pH 7.5 and 500 mM NaCl in a Pierce Slide-A-Lyzer dialysis cassette (3.5 kDa cut-off). Dialyzed protein was concentrated to 1.9 mg/ml using a 10 kDa cutoff Amicon Ultra spin-column (Millipore), filtered through a 0.2 μm filter (Millipore) and degassed for 15 min. DSC experiments were carried out with a Nano-Differential Scanning Calorimeter III, (calorimetry Sciences Corporation) at a scan rate of 1° C./min in the range from 1 to 80° C. and with a constant pressure of 3 atm. The dialysis buffer was used as reference in the DSC runs. The melting temperature of the protein was calculated by subtracting the buffer-buffer baseline from the protein scan. Refolding experiments were carried out by a reverse cooling scan, allowing the unfolded protein to be kept at 4° C. overnight before a new forward scan was done. The NanoAnalyze™ software was used to calculate the melting temperature. The experimental transition curves were fitted on a two-state transition model.

[5] = Integrated reaction: Neu5Ac production from GlcNAc and pyruvate at alkaline pH (TBA assay); format: biochemical
Method: For ManNAc reactions, the buffer used was HEPES, pH 8.0. […] Experiments were performed in triplicate. For ManNAc experiments, aliquots were sampled after 0.5, 1.0, 1.5, 2.5 and 4.0 h. For GlcNAc experiments, aliquots were sampled after 12, 24, 36, 48 and 72 h. Reactions were terminated by addition of 2 μl concentrated H2SO4. The time needed for N-acetylneuraminic acid (Neu5Ac) production to get started under these conditions was known to take longer time based on initial test experiments. The thiobarbituric acid (TBA) assay procedure was followed to determine the amount of Neu5Ac produced. The activity was corrected for a blank value. The blank contained all the reaction components except for enzyme.
Initially, also glycine buffer was tested at pH 10.5 and pH 11.0 for the reactions with GlcNAc. GlcNAc will chemically epimerize to ManNAc at pH values above 9.0, which the enzyme will use as substrate for the production of Neu5Ac. The epimerization is pH dependent and will increase with increasing pH. Production of Neu5Ac was higher in CAPS buffer compared to glycine buffer, so this was chosen for further experiments.

B1: AsNAL: N-acetylneuraminate lyase isolated from the psychrophilic bacterium Aliivibrio salmonicida LFI1238, recombinantly expressed in E. coli (protein, listed as Aliivibrio salmonicida)
chain: MKKLTGLIAAPHTPFDSSSNVNFEEIDKIAKHLINDGVKGIYVCGTTGEGIHCSVEERKAIAERWVSACNHKLDIIVHTGALSIVDTLELTRHADTLDILATSAIGPCFFKPGSVSDLVEYCATIAAAAPSKGFYYYHSGMSGVNLNMEEFLIQADKRIPNLSGLKFNSGDLYEYQRCLRACDGKFDVPFGVDEFLPGALAVGAKSAVGSTYNYAAPHFNSIIEAFNKGDHDAVFNKMTNVIELIRVLVEFGGVAAGKIAMELHDINAGDPRLPLMPLSAEQKLTVVEKMRAANFLK
optimal temperature, cleavage reaction ([1]; HEPES buffer pH 8.0, 30 min): 65 °C | cleavage activity retained ([1]; at 10° C., relative to highest value): 30% | specific activity of the cleavage reaction, higher than EcNAL ([2]; 4° C.): 25% | specific activity of the cleavage reaction, higher than EcNAL ([2]; 23° C.): 35% | specific activity of the cleavage reaction, higher than EcNAL ([2]; 37° C.): 35% | decrease in activity (condensation) after one month ([3]; Glycine pH 11.0, room temperature): 3.3% | decrease in activity (condensation) after one month ([3]; HEPES pH 8.0, room temperature): 14.5% | decrease in activity (condensation) after one month ([3]; Phosphate pH 7.0, room temperature): 15% | decrease in activity (condensation) after one month ([3]; Tris-HCl pH 8.0, room temperature): 14% | decrease in activity (condensation) after one month ([3]; Tris-HCl pH 8.5, room temperature): 6.4% | decrease in activity (condensation) after one month ([3]; Tris-HCl pH 9.0, room temperature): 4% | activity retained after storage compared to initial activity ([3]; all measured pH (6.0 to 11.0), one month, room temperature): More than 83% | melting temperature (DSC) [4]: 77.5 °C | ΔH (DSC) [4]: 179.164 kcal/mol | ΔS (DSC) [4]: 2.137 kJ/(mol·K) | production of Neu5Ac relative to highest amount obtained with pyruvate and ManNAc 4:1 at pH 8.0 ([5]; pyruvate and GlcNAc 4:1, CAPS pH 11.0, 48 h): around 60% | production of Neu5Ac (in words) ([5]; pyruvate and GlcNAc, CAPS pH 11.5): able to produce Neu5Ac in the same range as at pH 11.0

Reference: patent publication US10378034B2, “Use of a N-acetylneuraminate lyase derived from the bacterium Aliivibrio salmonicida in the production of neuraminic acid and derivatives thereof” (Universitetet i Tromsø-Norges Arktiske Universitet, priority 2014, dated 2019)
